B1: 抗神经特异性烯醇化酶的单克隆抗体4C11 (hybridoma-derived) (antibody, V domains shown)
VH: EVKLVESGGGLVQPGGSLRLSCATSGFTFTDYYMSWVRQPPGKALEWLGFIRNKANGYTTEYSASVKGRFTISRDNSQSILYLQMNTLRAEDSATYYCARDGDGSARWGQGTLVTVSA
VL: DIQMTQTTSSLSASLGDRVTISCRASQDISNYLNWYQQKPDGTVKLLIYYTSRLHSGVPSRFSGSGSGTDYSLTISNLEQEDIATYFCQQGNTLPYTFGGGTRLEIR
notes: Mouse hybridoma antibody; It was tested as hybridoma supernatant or ascites; also called 4C11单克隆抗体
B2: 重组4C11抗体重链4C11mG1 (transfected alone) (other)
heavy: B1 VH
notes: Heavy chain only, with no light chain; tested as 293T culture supernatant; not shown: mouse IgG1 heavy-chain constant region supplied by vector pFUSE-CHIg-mG1 (invivogen)
B3: 重组4C11抗体轻链4C11mk (transfected alone) (other)
light: DIQMTQTTSSLSASLGDRVTISCRASQDISNYLNWYQQKPDGTVKLLIYYTSRLHSGVPSRFSGSGSGTDYSLTISNLEQEDIATYFCQQGNTLPYTFGGGTRLEIRRADAAPTVSIFPPSSEQLTSGGASVVCFLNNFYPKDINVKWKIDGSERQNGVLNSWTDQDSKDSTYSMSSTLTLTKDEYERHNSYTCEATHKTSTSPIVKSFNRNEC
notes: Light chain only, with no heavy chain; tested as 293T culture supernatant

Key:
[1] = biological target: T1, ENO2flag (ENO2 with C-terminal flag tag, pcDNA3.1, expressed in 293T cells) (human, UniProt P09104 2-434, limits assumed); assay: Western blot, lysate of 293T cells transfected with ENO2flag-pcDNA3.1, hybridoma supernatant
T1 construct: Tested as a lysate of transfected 293T cells (Western blot) and in acetone-fixed transfected 293T cells (immunofluorescence); also called ENO2flag-pcDNA3.1; ENO2抗原; not shown: C-terminal flag tag

[2] = biological target: T2, ENO2-GST (human ENO2 expressed from pGEX 4t-1, GST-column purified) (human, UniProt P09104 1-434); assay: ELISA screening of hybridoma supernatants on ENO2-GST coated plates
T2 construct: Expressed in E. coli BL21(DE3) and used to coat ELISA plates at 100 ng/well; also called pGEX 4t-1载体表达的ENO2; ENO2-4t-1; not shown: GST tag supplied by vector pGEX 4t-1

[3] = biological target: T3, 纯化的ENO2蛋白 (coating protein of the Example 7 ELISA) (human, UniProt P09104 1-434); assay: ELISA, ENO2-coated plate (100 ng/well), 293T supernatant, HRP anti-IgG / anti-kappa secondary
T3 construct: also called 抗原ENO2
T3 sequence (P09104 whole entry): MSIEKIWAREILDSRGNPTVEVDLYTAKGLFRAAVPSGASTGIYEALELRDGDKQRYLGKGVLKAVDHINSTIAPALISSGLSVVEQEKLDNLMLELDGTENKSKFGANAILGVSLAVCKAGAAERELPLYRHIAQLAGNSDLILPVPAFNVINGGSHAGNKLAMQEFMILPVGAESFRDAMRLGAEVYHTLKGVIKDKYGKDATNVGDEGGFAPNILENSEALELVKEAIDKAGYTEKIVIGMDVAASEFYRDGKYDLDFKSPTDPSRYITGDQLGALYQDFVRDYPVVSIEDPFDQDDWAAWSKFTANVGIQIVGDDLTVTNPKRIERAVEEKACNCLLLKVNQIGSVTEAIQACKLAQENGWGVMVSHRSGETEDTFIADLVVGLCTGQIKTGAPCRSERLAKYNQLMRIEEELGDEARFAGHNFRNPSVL

T2 sequence (P09104 whole entry): as above
T1 sequence (P09104 2-434 limits assumed): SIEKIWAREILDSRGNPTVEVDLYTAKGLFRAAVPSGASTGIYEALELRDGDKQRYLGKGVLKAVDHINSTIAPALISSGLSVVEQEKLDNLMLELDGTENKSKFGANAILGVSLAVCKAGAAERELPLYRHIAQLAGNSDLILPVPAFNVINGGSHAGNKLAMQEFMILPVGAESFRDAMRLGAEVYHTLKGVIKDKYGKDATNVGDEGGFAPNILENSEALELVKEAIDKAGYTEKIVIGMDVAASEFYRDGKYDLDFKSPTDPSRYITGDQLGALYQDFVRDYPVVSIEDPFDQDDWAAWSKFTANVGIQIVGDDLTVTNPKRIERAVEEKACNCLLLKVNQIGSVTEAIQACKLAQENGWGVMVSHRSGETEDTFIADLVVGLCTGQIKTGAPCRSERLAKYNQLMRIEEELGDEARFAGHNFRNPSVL

Row | Binder | binding result [1] | binding result [2] | binding result [3]
1 | B1 | binds | binds | 
2 | B2 |  |  | no binding
3 | B3 |  |  | no binding

— CN114426582A (SHAANXI PULSE ELEMENT BIOTECHNOLOGY LTD COMPANY, dated 2022)
